Positions count from the first letter of the chain named. Where no end group is shown, it is not given here.
B1: EVO21a (designed binder)
chain: KPDFCFLENDPGPCRAVKRRYFYNNQTKQCERFGYGGCLGNMNNFVTLEECKNICEDG
modifications: not fully specified; cysteine pairing not given here
notes: Modified TFPI-D2 Kunitz domain; made as m1
B2: EVO214a (designed binder)
chain: B1 chain with N9E, V17L, R19L, L39F
B3: EVO211a (designed binder)
chain: B1 chain with N9E, P13W, V17L, L39F
B4: EVO22d (designed binder)
chain: B1 chain with N9E, V17A, G34Y, L39F
B5: EVO223 (designed binder)
chain: B1 chain with V17A, K18A, R19V, G34Y
notes: as for B1
B6: EVO25 (designed binder)
chain: B1 chain with V17L, G34Y, L39F, V46E
modifications: not fully specified; cysteine pairing not given here
notes: as for B1

Target: T1, human MASP-2 (in normal human serum) (human, UniProt O00187 16-686)
T1 sequence (O00187 16-686 limits assumed): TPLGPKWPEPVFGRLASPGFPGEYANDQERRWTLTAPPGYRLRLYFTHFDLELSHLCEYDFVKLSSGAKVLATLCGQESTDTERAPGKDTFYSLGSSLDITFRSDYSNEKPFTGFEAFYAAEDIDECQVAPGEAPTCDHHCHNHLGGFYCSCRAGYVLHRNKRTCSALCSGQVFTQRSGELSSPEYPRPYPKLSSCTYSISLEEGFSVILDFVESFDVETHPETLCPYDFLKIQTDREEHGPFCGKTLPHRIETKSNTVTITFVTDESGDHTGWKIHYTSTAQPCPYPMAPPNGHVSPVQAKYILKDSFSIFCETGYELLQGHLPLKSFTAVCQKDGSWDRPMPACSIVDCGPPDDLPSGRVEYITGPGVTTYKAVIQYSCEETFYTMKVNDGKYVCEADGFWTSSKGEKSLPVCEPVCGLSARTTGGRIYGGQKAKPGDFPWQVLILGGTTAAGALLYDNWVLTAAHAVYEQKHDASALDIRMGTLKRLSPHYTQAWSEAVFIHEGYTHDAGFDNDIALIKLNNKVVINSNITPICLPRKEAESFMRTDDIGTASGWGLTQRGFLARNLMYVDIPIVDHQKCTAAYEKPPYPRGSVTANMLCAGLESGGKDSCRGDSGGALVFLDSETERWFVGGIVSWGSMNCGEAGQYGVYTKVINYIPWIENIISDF
Test: cell-based or functional assay

Binder	IC50, lectin pathway C4 deposition, human serum [nM]	Relative potency, lectin pathway, human serum [fold vs EVO2]
B1	21.4	6.5
B2	10.2	13.6
B3	9.1	15.2
B4	5.6	24.7
B5	9.9	14
B6	5.6	24.5

Target: rat MASP-2 (in rat serum) (rat, UniProt Q9JJS8 20-685)
Sequence (Q9JJS8 20-685 limits assumed): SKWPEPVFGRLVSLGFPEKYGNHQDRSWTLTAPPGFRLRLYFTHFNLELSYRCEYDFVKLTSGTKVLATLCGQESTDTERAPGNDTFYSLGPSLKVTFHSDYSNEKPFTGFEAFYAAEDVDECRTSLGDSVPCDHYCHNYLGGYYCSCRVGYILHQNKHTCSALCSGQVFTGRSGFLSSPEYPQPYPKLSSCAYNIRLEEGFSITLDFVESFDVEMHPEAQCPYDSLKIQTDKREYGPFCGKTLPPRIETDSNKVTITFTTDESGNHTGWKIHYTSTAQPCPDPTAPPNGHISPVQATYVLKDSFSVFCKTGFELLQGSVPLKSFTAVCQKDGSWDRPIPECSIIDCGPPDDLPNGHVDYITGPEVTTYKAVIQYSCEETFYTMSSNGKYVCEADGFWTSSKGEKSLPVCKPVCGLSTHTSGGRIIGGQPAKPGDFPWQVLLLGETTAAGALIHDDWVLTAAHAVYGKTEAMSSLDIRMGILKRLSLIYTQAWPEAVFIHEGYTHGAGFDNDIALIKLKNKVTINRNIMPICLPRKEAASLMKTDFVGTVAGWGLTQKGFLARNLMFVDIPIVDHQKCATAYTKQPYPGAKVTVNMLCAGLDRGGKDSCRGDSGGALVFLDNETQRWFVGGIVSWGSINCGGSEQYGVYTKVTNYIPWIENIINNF
Test: cell-based or functional assay

Binder	IC50, lectin pathway C4 deposition, rat serum [nM]	Relative potency, lectin pathway, rat serum [fold vs EVO2]
B1	39.4	2.7
B2	20.3	5.2
B3	30.6	3.5
B4	10.4	10.2
B5	12	8.9
B6	15	7.1

Target: T2, human MASP-2cf CCP1-CCP2-SP (human, UniProt O00187 298-686, limits assumed)
T2 construct: domain: CCP1-CCP2-SP; also called human MASP-2 catalytic fragment
T2 sequence (O00187 298-686 limits assumed): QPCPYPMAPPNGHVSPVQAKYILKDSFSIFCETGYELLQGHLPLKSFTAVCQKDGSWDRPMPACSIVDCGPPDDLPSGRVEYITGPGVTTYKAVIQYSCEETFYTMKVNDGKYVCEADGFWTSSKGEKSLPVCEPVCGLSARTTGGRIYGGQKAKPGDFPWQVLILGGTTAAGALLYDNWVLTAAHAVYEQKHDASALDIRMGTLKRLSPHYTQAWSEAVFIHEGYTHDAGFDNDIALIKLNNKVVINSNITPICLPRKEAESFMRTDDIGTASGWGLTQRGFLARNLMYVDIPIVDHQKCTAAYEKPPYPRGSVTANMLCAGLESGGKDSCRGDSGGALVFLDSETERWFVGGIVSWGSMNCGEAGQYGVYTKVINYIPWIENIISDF
Test: SPR, target immobilised

Binder	Kd [nM]	Relative affinity [fold vs EVO2]	koff [s⁻¹]	kon [M⁻¹ s⁻¹]
B1	0.723	2.5	0.000839	1.16e+06
B5	0.054	33.1	4.77e-05	882000
B6	0.203	8.8	0.000438	2.16e+06

Target: T3, rat MASP-2cf CCP1-CCP2-SP (rat, UniProt Q9JJS8 298-685)
T3 construct: range 298-685; Mw 42309 Da; also called rat MASP-2 catalytic fragment
T3 sequence (Q9JJS8 other isoform, or with tags, fused parts or gaps limits assumed, form in doubt): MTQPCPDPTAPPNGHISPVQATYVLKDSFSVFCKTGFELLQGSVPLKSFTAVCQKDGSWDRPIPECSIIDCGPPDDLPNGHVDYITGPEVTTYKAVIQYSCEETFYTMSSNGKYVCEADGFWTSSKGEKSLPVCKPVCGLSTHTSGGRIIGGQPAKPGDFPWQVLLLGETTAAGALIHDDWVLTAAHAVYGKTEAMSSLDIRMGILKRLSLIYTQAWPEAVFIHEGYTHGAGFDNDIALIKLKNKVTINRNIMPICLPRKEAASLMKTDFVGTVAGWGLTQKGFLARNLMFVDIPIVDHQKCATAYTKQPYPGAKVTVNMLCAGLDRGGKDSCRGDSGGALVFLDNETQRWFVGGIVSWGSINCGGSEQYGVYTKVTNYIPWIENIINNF
Test: SPR, target immobilised

Binder	Kd [nM]	Relative affinity [fold vs EVO2]	koff [s⁻¹]	kon [M⁻¹ s⁻¹]
B1	2.02	1.8	0.00104	515000
B5	0.108	33.6	7.53e-05	696000
B6	0.787	4.6	0.000826	1.05e+06

Target: T1, human MASP-2 (in normal human serum)
Test: cell-based or functional assay
Remark: another data set of the same source

Binder	Relative potency (relative human lectin pathway inhibitory efficiency compared to EVO2)
B1	6.4 fold relative to EVO2
B2	15.2 fold relative to EVO2
B3	13.5 fold relative to EVO2
B4	24.6 fold relative to EVO2

Target: T3, rat MASP-2cf CCP1-CCP2-SP
Test: enzyme inhibition, tight-binding fit

Binder	Ki [nM]
B5	0.09
B6	0.9
